Source: the supplement of paper PMC10567573
± gives the standard deviation.

Assay: protein stability index of a GFP-peptide fusion (GPS, HEK-293T) (PSI 1-6); higher = more stable
[1] = treatment: DMSO, c terminus: a fixed tail appended
[2] = treatment: MLN4924 1 uM, 8 h, c terminus: a fixed tail appended
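Also: 24-mer peptide tiles fused after GFP, lentivirally expressed, FACS-sorted into six equal bins by GFP/DsRed ratio, decoded by Illumina sequencing, PSI is the read-weighted mean bin number.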

| Sequence | protein stability index [1] | protein stability index [2] | protein stability index (treatment: DMSO, c terminus: native) | protein stability index (treatment: MLN4924 1 uM, 8 h, c terminus: native) |
| --- | --- | --- | --- | --- |
| DYLDLDKMSLYSEADSGYGSYGGF [TRIM9] | 2.46 ± 0.51 | 2.77 ± 0.24 |  |  |
| NQLTHTDLKPENILFVNSEFETLY [CLK3] | 3.29 ± 0.35 | 3.27 ± 0.18 |  |  |
| QRVPKVLVENAKNFPQCVLEISDQ [EFHC1] | 3.49 ± 0.19 | 3.81 ± 0.29 |  |  |
| EEIRGGGLLKYCSLLVHGFKPACM [TENT5D] | 3.11 ± 0.5 | 2.35 ± 0.67 |  |  |
| RLMSFRPICSANHKESKMTIFEKE [CRYBA1] | 3.14 ± 0.16 | 3.5 ± 0.21 |  |  |
| RQEYQKALQEYSSISEKLSSTNFA [C8orf76] | 3.48 ± 0.26 | 3.69 ± 0.18 |  |  |
| QCFFNGVFLGNKRSLSERTVDKCF [SPATS1] | 2.13 ± 0.25 | 2.34 ± 0.24 |  |  |
| IEEDMNNSIAHYRQVNIRTANCTT [KCNA1] | 3.71 ± 0.55 | 3.57 ± 0.48 |  |  |
| DDGKLGATGPMGMRGFKGDRGPKG [SCARA5] | 5.02 ± 0.36 | 5.07 ± 0.13 |  |  |
| WMLTRKQFGLLSFFFAVLHAIYSL [STEAP1] | 1.95 ± 0.54 | 2.1 ± 0.27 |  |  |
| ALRERWLLEGTPSSASEGDEDLRR [PALM] | 5 ± 0.25 | 5.14 ± 0.21 |  |  |
| PAPTTTTATREEASTSLPTKPTQG [CLPTM1] | 5.54 ± 0.19 | 5.57 ± 0.14 |  |  |
| HGVDLSALRGAAVDEYFRQPVVDT [CARM1] | 4.13 ± 0.41 | 4.29 ± 0.56 |  |  |
| GRLPRIPQVLSQEFTELLKVMIHP [WEE1] | 2.48 ± 0.53 | 2.47 ± 0.45 |  |  |
| RGEQTTSQVSWEQDLKLFLQEPGV [FCHSD1] | 4.01 ± 0.27 | 4.06 ± 0.43 |  |  |
| DNPSVLSGPMQAALQAAAHASVDI [SMG5] | 4.05 ± 0.14 | 4.29 ± 0.26 |  |  |
| FYMFAWTHVTLLITVTQSHLVIQN [CDS1] | 3.01 ± 0.38 | 3 ± 0.3 |  |  |
| VHLVIWLLLVAKMSVGHLRLLSHD [JAGN1] | 3.39 ± 0.5 | 3.36 ± 0.63 |  |  |
| IDCGKAFSQKSCLVAHQRYHTGKT [ZNF649] | 2.83 ± 0.24 | 2.87 ± 0.16 |  |  |
| PAFPFIYTPTAEDSAQMQNGGPST [ANKRD40] | 4.55 ± 0.12 | 4.5 ± 0.23 |  |  |
| GKLVLSSLPKRLCLVCGDVASGYH [ESRRA] | 2.38 ± 0.45 | 1.97 ± 0.33 |  |  |
| YSSNQLHHFFCDIAPVLKLASHHN [OR10K2] | 2.59 ± 0.72 | 2.17 ± 0.38 |  |  |
| KHIPYREHKSLTGTARYMSINTHL [CSNK1G3] | 2.41 ± 0.088 | 2.51 ± 0.32 |  |  |

| Sequence | protein stability index [1] | protein stability index [2] | protein stability index (treatment: DMSO, c terminus: native) | protein stability index (treatment: MLN4924 1 uM, 8 h, c terminus: native) |
| --- | --- | --- | --- | --- |
| IVATLLILDICEDNVPDPKDVKER [TMEM175] | 2.46 ± 0.67 | 2.49 ± 0.37 |  |  |
| AMEPEPAPAPAPEEWLDILGNGLL [FKBP8] | 4.47 ± 0.1 | 4.59 ± 0.41 |  |  |
| GEDSSTSSSTPLEDEEPQEPNRLE [RTN2] | 5.56 ± 0.26 | 5.57 ± 0.25 |  |  |
| ISLHPFNPWNWGKLAEAYLNLGPA [C8orf76] | 2.23 ± 1.1 | 2.18 ± 0.77 |  |  |
| KPKIEDVGSDEEDDSGKDKKKKTK [HSP90AB1] | 5.54 ± 0.24 | 5.56 ± 0.12 |  |  |
| PVQPGMLIDVCKYLGSLQYRVWKK [TRIM35] | 2 ± 0.2 | 2.17 ± 0.29 |  |  |
| VIDRKVYNISEFTRRHPGGSRVIS [FADS1] | 2.66 ± 0.26 | 3.07 ± 0.062 |  |  |
| PRLIAKVEGKGNGIKTVIVNMVDV [EIF5] | 2.34 ± 0.41 | 2.37 ± 0.34 |  |  |
| LGAGGGSLLPGAVEQPQPQFISRF [NEK8] | 3.14 ± 0.21 | 3.32 ± 0.46 |  |  |
| NDFSYLHTNCFELSIYVGCDKYPH [CPXM2] | 2.5 ± 0.18 | 2.25 ± 0.37 |  |  |
| VVVESMEQDRIPEVHVPPSSAVSG [MIA2] | 4.45 ± 0.36 | 4.48 ± 0.2 |  |  |
| ALRVQQLVAKELGQTGTRLTPADK [AUP1] | 4.04 ± 0.18 | 4.16 ± 0.14 |  |  |
| GLRQRASNKVQDSAPVETPRGKPP [HMOX1] | 5 ± 0.25 | 4.83 ± 0.2 |  |  |
| SYFKCVQKEVLPSMRKIVATWMLE [CCND1] | 2.91 ± 0.76 | 2.46 ± 0.37 |  |  |
| DQEQGSSFQMSEGSEAAVIPLDLG [FAM189A2] | 5.34 ± 0.35 | 5.48 ± 0.17 |  |  |
| MSSYTVAGRNVLRWDLSPEQIKTR [NLN] | 2.99 ± 0.33 | 3.04 ± 0.18 |  |  |
| DHTSEAVRNLFGLDPSSGAIHVLG [PCDHGC5] | 3.16 ± 0.24 | 3.09 ± 0.19 |  |  |
| KHAAFVTPDQKYSMDNTPHTPTPF [MYBL2] | 3.84 ± 0.25 | 3.84 ± 0.35 |  |  |
| NTKEKIAFFASHQCSNRIGSMKIK [FBXO34] | 2.79 ± 0.19 | 2.72 ± 0.46 |  |  |
| DPNKMAFGCEECGKKYNTMLGYKR [PLAGL1] | 3.07 ± 0.49 | 3.46 ± 0.64 |  |  |
| RCVKSIIRQVLQGLDYLHSKCKII [SRPK2] | 2.73 ± 0.88 | 2.79 ± 0.59 |  |  |
| EFISSTKRPYAKELETVDFKDKLE [SERPINB5] | 3.98 ± 0.24 | 4.32 ± 0.13 |  |  |
| RMQALLIRERILGPSHPDTSYYIR [FEM1C] | 2.2 ± 0.17 | 2.18 ± 0.44 |  |  |

| Sequence | protein stability index [1] | protein stability index [2] | protein stability index (treatment: DMSO, c terminus: native) | protein stability index (treatment: MLN4924 1 uM, 8 h, c terminus: native) |
| --- | --- | --- | --- | --- |
| KMLRKEAAARCVVLDCRPYLAFAA [DUSP5] | 2.77 ± 0.63 | 2.51 ± 0.44 |  |  |
| QSSGKILLCPLCQEEEQAETPMAP [TRIM15] | 3.79 ± 0.36 | 4.28 ± 0.31 |  |  |
| EKKGLHEKALQVLVDQSKKANSPL [VPS39] | 4.65 ± 0.21 | 4.67 ± 0.18 |  |  |
| LKFLEENKIKVMHKQLLLFHNAVS [ARFIP2] | 2.41 ± 0.44 | 2.17 ± 0.26 |  |  |
| GDFDFDEVKFPNASDMFRRLRDAG [MYORG] | 3.98 ± 0.16 | 3.98 ± 0.2 |  |  |
| SCNTWPSMPSYSSCTVTTVQPMDR [TBX5] | 3.11 ± 0.14 | 3.09 ± 0.19 |  |  |
| GATCMFVASKMKETIPLTAEKLCI [CCND1] | 2.34 ± 0.34 | 1.99 ± 0.41 |  |  |
| LVHTQEPGEWLELLLEPGSLYILR [ALKBH7] | 2.38 ± 1 | 2.23 ± 0.28 |  |  |
| QQQIHHIKNLYAFNLFCQKRFDES [VPS39] | 2.29 ± 0.11 | 2.42 ± 0.15 |  |  |
| DVAGNLDYKALSYVITHGEEKEE [MYL5] |  |  | 2.62 ± 0.7 | 3.56 ± 1.1 |
| EQTAPGDSTGYMEVSLDSLDLRVK [EHMT1] | 4.59 ± 0.32 | 4.87 ± 0.2 |  |  |
| SNGFPERDPPRPGPSRPAEKPPRP [GCH1] | 5 ± 0.1 | 4.99 ± 0.082 |  |  |
| DPVLAKVAGDCLDEKQCKQCANKV [LRRC59] | 4.99 ± 0.42 | 5.07 ± 0.09 |  |  |
| PSHYDVQDRFRIELSEEGAEGRVV [MOSPD3] | 4.63 ± 0.11 | 4.79 ± 0.33 |  |  |
| QRRTEASRNAADKERAAGGGAGSS [GOLPH3] | 5.54 ± 0.23 | 5.36 ± 0.15 |  |  |
| NQKCQLRLLKTLETSRSHDLEAVV [ATP23] | 3.14 ± 0.12 | 3.3 ± 0.2 |  |  |
| EDSDVEMVEDDSRKEMTAACTPRR [MLH1] | 5.54 ± 0.3 | 5.67 ± 0.18 |  |  |
| SQLSVLSLSGVMLTDVSPEPLQAL [PRAME] | 2.36 ± 0.37 | 2.4 ± 0.3 |  |  |
| YIPSSYVDSHHEYPAMTFYSPAVM [ESR2] | 2.73 ± 0.93 | 2.6 ± 0.45 |  |  |
| MEAVLNELVSVEDLLKFEKKFQSE [FIS1] | 3.69 ± 0.25 | 3.65 ± 0.27 |  |  |
| MASPDDPLRADHMVKEPVEDTDPS [EDARADD] | 5.52 ± 0.17 | 5.63 ± 0.2 |  |  |
| ADWAVMDVVNYFRTVGFEEQASAF [SAMD13] | 2.21 ± 0.3 | 2.59 ± 0.19 |  |  |
| QFGQDGPISVHCSAGVGRTGVFIT [PTPRD] | 2.46 ± 0.48 | 2.15 ± 0.22 |  |  |

| Sequence | protein stability index [1] | protein stability index [2] | protein stability index (treatment: DMSO, c terminus: native) | protein stability index (treatment: MLN4924 1 uM, 8 h, c terminus: native) |
| --- | --- | --- | --- | --- |
| EINPPPHTMEEEEDDDWGEDTTEE [EIF5] | 5.52 ± 0.28 | 5.34 ± 0.48 |  |  |
| KVRSLETENSALQLQVTEREEVRG [LMNB1] | 5.22 ± 0.35 | 5.53 ± 0.15 |  |  |
| ISCVERGWSTPPKCRSTISAEKCG [CFHR2] | 2.88 ± 0.14 | 3.09 ± 0.32 |  |  |
| MEAGERIDASQLPHRVLETRGHAI [SMIM2] | 4.19 ± 0.44 | 4.02 ± 0.6 |  |  |
| YDLEYWAFHDGQRSRLRPRDDLDR [TRIM14] | 3.52 ± 0.36 | 3.69 ± 0.34 |  |  |
| ALYVQAPTVTIEGFLQALSLAVDK [TRIP13] | 2.09 ± 0.46 | 2.2 ± 0.17 |  |  |
| AAVKAAREAFPSWSSRSPQERSRV [ALDH8A1] | 3.73 ± 0.23 | 3.88 ± 0.48 |  |  |
| IGYVHIYLKGQREKSEKINAMLKG [GOSR1] | 2.21 ± 0.14 | 2.67 ± 0.17 |  |  |
| EEMWTFRGKIHAFRGQILGFWEEE [CCDC70] | 2.15 ± 0.41 | 2.35 ± 0.26 |  |  |
| QRRPRVLSCLHSVCEQCLQILYES [RNF208] | 2.32 ± 0.17 | 2.64 ± 0.54 |  |  |
| PVVSAVWGHCEIRMRYLNGLDPEP [SPSB1] | 2.14 ± 0.35 | 1.98 ± 0.33 |  |  |
| SIPLERIHFDSYITCVSGAIVDLI [FBXO33] | 2.44 ± 0.42 | 2.26 ± 0.42 |  |  |
| SWVSELLWSLFVPFTVYQVRWLRP [AUP1] | 3.12 ± 0.27 | 2.81 ± 0.51 |  |  |
| SSTGNTALTYACAGGYVDVVKVLL [ANKRD17] | 2.07 ± 0.55 | 2.23 ± 0.3 |  |  |
| DVALVLTVLLEEETLEASVGPRET [TOR1AIP2] | 2.49 ± 0.51 | 2.27 ± 0.31 |  |  |
| VTGMELEFKRLASSKAHTSRFISA [PTPRD] | 2.71 ± 0.33 | 2.81 ± 0.4 |  |  |
| NPTRQDESIQRIAVHLCNALVCQV [ZER1] | 2.48 ± 0.74 | 2.27 ± 0.16 |  |  |
| ELSRIVLMRHGMEKIWRPNRVFSL [RAB40C] | 2.37 ± 0.37 | 2.63 ± 0.41 |  |  |
| RENILVSLGAVGEGFHNYHHSFPY [SCD] | 2.22 ± 0.13 | 2.11 ± 0.14 |  |  |
| AGFDALQGDPKGEMAATPAGFAQL [HDAC6] | 4.37 ± 0.21 | 4.09 ± 0.36 |  |  |
